From article PMC12186490 (2025)

Assays:
[1] = target: T1, fluorescein-labeled synthetic NRPS-inducing peptide (NIP) (Streptococcus salivarius K12, fluorescein label); experiment: FP; pH 7.5
[2] = target: T1, fluorescein-labeled synthetic …; experiment: FP; pH 6.0
[3] = target: T1, fluorescein-labeled synthetic …; experiment: FP; pH 5.5
[4] = target: T1, fluorescein-labeled synthetic …; experiment: FP; pH 5.5; remark: listed apart in the source
[5] = target: T1, fluorescein-labeled synthetic …; experiment: FP; pH 5.0
[6] = target: T1, fluorescein-labeled synthetic …; experiment: FP; pH 6.5
[7] = target: T1, fluorescein-labeled synthetic …; experiment: FP; pH 7.0
[8] = target: T1, fluorescein-labeled synthetic …; experiment: FP; pH 7.5; remark: listed apart in the source

B1: NRPS regulator NrpR (amino acids 1-285), recombinant, untagged (receptor)
chain: GSHMNFGQAIDHLRRQKHFSVKQICGNYLSRQTYYRFVNNEVDISSTKLFYLLNHLNVNVDEFLFICNNFQLEKEFTDMEKIKIYFEKNNIVGLQNLLTSYSSQINVKEKIIYALISSLLGRLTNTSSCTEEKILRDYLINIETWTHYETVLFNNAMFIFDSEFIELIFRKINLNLEKYSTLRYYGNESIRMFINMIILYIDRQDIRRAKEALQIAKNFKINDDCMYEKSCIVFFNEVLNLLNGEISSLKICKSIIKYFNLIGSLSIAAMFESYLDTLIKNNPHITFN
Kd [1]: 20.4 nM | Kd [2]: 12.2 nM | Kd [3]: 6.1 nM | Kd [4]: 7.5 nM | Kd [5]: 18 nM | Kd [6]: 16.2 nM | Kd [7]: 18.4 nM | Kd [8]: 26 nM
